Assay results: US20230272029A1, “CO-AGONISTS AT GLP-1 AND GIP RECEPTORS SUITABLE FOR ORAL DELIVERY” (Novo Nordisk A/S, priority 2020, published 2023)
Starred links: 1 amine or outer side, 2 acyl side, 3 side chain; linkers in the order of their positions; H or OH if unused. Non-standard residues stand in square brackets, D forms with d. Groups on a side chain read outwards from the residue. No end group written: not given here. *: point of attachment. C18 diacid = O=C(O)CCCCCCCCCCCCCCCCC(=O)*; C16 diacid = O=C(O)CCCCCCCCCCCCCCC(=O)*; γGlu = O=C(O)[C@H](CCC(=O)[*:2])N[*:1]; εLys = N[C@@H](CCCCN[*:1])C(=O)[*:2]; AEEA = NCCOCCOCC(=O)O; Aib = CC(C)(N)C(=O)O

T1: human GIP receptor (human, UniProt P48546 22-466)
T1 sequence (looked up): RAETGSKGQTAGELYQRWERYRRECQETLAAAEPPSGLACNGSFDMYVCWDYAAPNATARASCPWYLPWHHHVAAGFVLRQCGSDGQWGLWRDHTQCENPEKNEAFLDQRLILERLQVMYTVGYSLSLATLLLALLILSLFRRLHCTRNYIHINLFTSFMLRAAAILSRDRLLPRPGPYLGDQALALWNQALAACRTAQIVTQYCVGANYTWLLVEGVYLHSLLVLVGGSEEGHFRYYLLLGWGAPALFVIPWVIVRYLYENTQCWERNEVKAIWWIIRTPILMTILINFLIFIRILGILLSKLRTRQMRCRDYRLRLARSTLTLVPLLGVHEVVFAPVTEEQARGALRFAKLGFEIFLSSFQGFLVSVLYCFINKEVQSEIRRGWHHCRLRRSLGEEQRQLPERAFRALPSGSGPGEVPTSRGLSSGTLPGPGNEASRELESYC


Legend:
[1] = target: human GLP-1 receptor (human, UniProt P43220 24-463); assay: cell-based or functional assay
[2] = target: T1, human GIP receptor; assay: cell-based or functional assay

| Binder | hGLP-1R, CRE Luc 0% HSA EC50 (pM) [1] | hGLP-1R, CRE Luc 1% HSA EC50 (pM) [1] | hGIPR, CRE Luc 0% HSA EC50 (pM) [2] | hGIPR, CRE Luc 1% HSA EC50 (pM) [2] |
| --- | --- | --- | --- | --- |
| Y[Aib]EGTFTSDYSIILEK([AEEA-AEEA-γGlu-C18 diacid])QAAREFINWLLAGGPSSGAPPPS-OH (N-terminus assumed; SMILES CC[C@H](C)[C@H](NC(=O)[C@H](Cc1ccccc1)NC(=O)[C@H](CCC(=O)O)NC(=O)[C@H](CCCNC(=N)N)NC(=O)[C@H](C)NC(=O)[C@H](C)NC(=O)[C@H](CCC(N)=O)NC(=O)[C@H](CCCCNC(=O)COCCOCCNC(=O)COCCOCCNC(=O)CC[C@H](NC(=O)CCCCCCCCCCCCCCCCC(=O)O)C(=O)O)NC(=O)[C@H](CCC(=O)O)NC(=O)[C@H](CC(C)C)NC(=O)[C@@H](NC(=O)[C@@H](NC(=O)[C@H](CO)NC(=O)[C@H](Cc1ccc(O)cc1)NC(=O)[C@H](CC(=O)O)NC(=O)[C@H](CO)NC(=O)[C@@H](NC(=O)[C@H](Cc1ccccc1)NC(=O)[C@@H](NC(=O)CNC(=O)[C@H](CCC(=O)O)NC(=O)C(C)(C)NC(=O)[C@@H](N)Cc1ccc(O)cc1)[C@@H](C)O)[C@@H](C)O)[C@@H](C)CC)[C@@H](C)CC)C(=O)N[C@@H](CC(N)=O)C(=O)N[C@@H](Cc1c[nH]c2ccccc12)C(=O)N[C@@H](CC(C)C)C(=O)N[C@@H](CC(C)C)C(=O)N[C@@H](C)C(=O)NCC(=O)NCC(=O)N1CCC[C@H]1C(=O)N[C@@H](CO)C(=O)N[C@@H](CO)C(=O)NCC(=O)N[C@@H](C)C(=O)N1CCC[C@H]1C(=O)N1CCC[C@H]1C(=O)N1CCC[C@H]1C(=O)N[C@@H](CO)C(=O)O) [Compound No. 36] | 4.7 pM | 414 pM | 5.5 pM | 356 pM |
| Y[Aib]EGTFTSDYSILLEEQAAREFIEWLLAGGPSK([AEEA-AEEA-γGlu-C18 diacid])GAPPPS-OH [Compound No. 45] | 3.9 pM | 1580 pM | 3.8 pM | 1220 pM |
| Y[Aib]EGTFTSDYSILLEEQAAREFIEWLLAGGPSK([εLys-εLys-γGlu-C16 diacid])GAPPPS-OH [Compound No. 46] | 1.5 pM | 111 pM | 1.8 pM | 97 pM |
| Y[Aib]EGTFTSDYSILLEEQAAREFIEWLLAGGPSKGAPPPS-OH (not fully specified (residue 33)) [Compound No. 47] | 2.1 pM | 154 pM | 3.1 pM | 156 pM |
| Y[Aib]EGTFTSDYSYYLEK([εLys-εLys-γGlu-C18 diacid])QAAQAFVNWLLAGGPSSGAPPPS-OH (N-terminus assumed; SMILES CC(C)C[C@H](NC(=O)[C@H](CC(C)C)NC(=O)[C@H](Cc1c[nH]c2ccccc12)NC(=O)[C@H](CC(N)=O)NC(=O)[C@@H](NC(=O)[C@H](Cc1ccccc1)NC(=O)[C@H](C)NC(=O)[C@H](CCC(N)=O)NC(=O)[C@H](C)NC(=O)[C@H](C)NC(=O)[C@H](CCC(N)=O)NC(=O)[C@H](CCCCNC(=O)[C@@H](N)CCCCNC(=O)[C@@H](N)CCCCNC(=O)CC[C@H](NC(=O)CCCCCCCCCCCCCCCCC(=O)O)C(=O)O)NC(=O)[C@H](CCC(=O)O)NC(=O)[C@H](CC(C)C)NC(=O)[C@H](Cc1ccc(O)cc1)NC(=O)[C@H](Cc1ccc(O)cc1)NC(=O)[C@H](CO)NC(=O)[C@H](Cc1ccc(O)cc1)NC(=O)[C@H](CC(=O)O)NC(=O)[C@H](CO)NC(=O)[C@@H](NC(=O)[C@H](Cc1ccccc1)NC(=O)[C@@H](NC(=O)CNC(=O)[C@H](CCC(=O)O)NC(=O)C(C)(C)NC(=O)[C@@H](N)Cc1ccc(O)cc1)[C@@H](C)O)[C@@H](C)O)C(C)C)C(=O)N[C@@H](C)C(=O)NCC(=O)NCC(=O)N1CCC[C@H]1C(=O)N[C@@H](CO)C(=O)N[C@@H](CO)C(=O)NCC(=O)N[C@@H](C)C(=O)N1CCC[C@H]1C(=O)N1CCC[C@H]1C(=O)N1CCC[C@H]1C(=O)N[C@@H](CO)C(=O)O) [Compound No. 5] | 9.4 pM | 625 pM | 14.2 pM | 362 pM |
| Y[Aib]EGTFTSDYSIYLEK([εLys-εLys-γGlu-C18 diacid])QAAREFVNWLLAGGPSSGAPPPS-NH2 (N-terminus assumed; SMILES CC[C@H](C)[C@H](NC(=O)[C@H](CO)NC(=O)[C@H](Cc1ccc(O)cc1)NC(=O)[C@H](CC(=O)O)NC(=O)[C@H](CO)NC(=O)[C@@H](NC(=O)[C@H](Cc1ccccc1)NC(=O)[C@@H](NC(=O)CNC(=O)[C@H](CCC(=O)O)NC(=O)C(C)(C)NC(=O)[C@@H](N)Cc1ccc(O)cc1)[C@@H](C)O)[C@@H](C)O)C(=O)N[C@@H](Cc1ccc(O)cc1)C(=O)N[C@@H](CC(C)C)C(=O)N[C@@H](CCC(=O)O)C(=O)N[C@@H](CCCCNC(=O)[C@@H](N)CCCCNC(=O)[C@@H](N)CCCCNC(=O)CC[C@H](NC(=O)CCCCCCCCCCCCCCCCC(=O)O)C(=O)O)C(=O)N[C@@H](CCC(N)=O)C(=O)N[C@@H](C)C(=O)N[C@@H](C)C(=O)N[C@@H](CCCNC(=N)N)C(=O)N[C@@H](CCC(=O)O)C(=O)N[C@@H](Cc1ccccc1)C(=O)N[C@H](C(=O)N[C@@H](CC(N)=O)C(=O)N[C@@H](Cc1c[nH]c2ccccc12)C(=O)N[C@@H](CC(C)C)C(=O)N[C@@H](CC(C)C)C(=O)N[C@@H](C)C(=O)NCC(=O)NCC(=O)N1CCC[C@H]1C(=O)N[C@@H](CO)C(=O)N[C@@H](CO)C(=O)NCC(=O)N[C@@H](C)C(=O)N1CCC[C@H]1C(=O)N1CCC[C@H]1C(=O)N1CCC[C@H]1C(=O)N[C@@H](CO)C(N)=O)C(C)C) [Compound No. 6] | 3.4 pM | 243 pM | 18.5 pM | 434 pM |
| Y[Aib]EGTFTSDYSIYLEK([AEEA-AEEA-γGlu-C18 diacid])QAAREFVNWLLAGGPSSGAPPPS-NH2 (N-terminus assumed; SMILES CC[C@H](C)[C@H](NC(=O)[C@H](CO)NC(=O)[C@H](Cc1ccc(O)cc1)NC(=O)[C@H](CC(=O)O)NC(=O)[C@H](CO)NC(=O)[C@@H](NC(=O)[C@H](Cc1ccccc1)NC(=O)[C@@H](NC(=O)CNC(=O)[C@H](CCC(=O)O)NC(=O)C(C)(C)NC(=O)[C@@H](N)Cc1ccc(O)cc1)[C@@H](C)O)[C@@H](C)O)C(=O)N[C@@H](Cc1ccc(O)cc1)C(=O)N[C@@H](CC(C)C)C(=O)N[C@@H](CCC(=O)O)C(=O)N[C@@H](CCCCNC(=O)COCCOCCNC(=O)COCCOCCNC(=O)CC[C@H](NC(=O)CCCCCCCCCCCCCCCCC(=O)O)C(=O)O)C(=O)N[C@@H](CCC(N)=O)C(=O)N[C@@H](C)C(=O)N[C@@H](C)C(=O)N[C@@H](CCCNC(=N)N)C(=O)N[C@@H](CCC(=O)O)C(=O)N[C@@H](Cc1ccccc1)C(=O)N[C@H](C(=O)N[C@@H](CC(N)=O)C(=O)N[C@@H](Cc1c[nH]c2ccccc12)C(=O)N[C@@H](CC(C)C)C(=O)N[C@@H](CC(C)C)C(=O)N[C@@H](C)C(=O)NCC(=O)NCC(=O)N1CCC[C@H]1C(=O)N[C@@H](CO)C(=O)N[C@@H](CO)C(=O)NCC(=O)N[C@@H](C)C(=O)N1CCC[C@H]1C(=O)N1CCC[C@H]1C(=O)N1CCC[C@H]1C(=O)N[C@@H](CO)C(N)=O)C(C)C) [Compound No. 7] | 4.2 pM | 513 pM | 28.7 pM | 687 pM |
| Y[Aib]EGTFTSDYSIYLEK([εLys-εLys-γGlu-C18 diacid])QAAREFINWLLAGGPSSGAPPPS-NH2 (N-terminus assumed; SMILES CC[C@H](C)[C@H](NC(=O)[C@H](Cc1ccccc1)NC(=O)[C@H](CCC(=O)O)NC(=O)[C@H](CCCNC(=N)N)NC(=O)[C@H](C)NC(=O)[C@H](C)NC(=O)[C@H](CCC(N)=O)NC(=O)[C@H](CCCCNC(=O)[C@@H](N)CCCCNC(=O)[C@@H](N)CCCCNC(=O)CC[C@H](NC(=O)CCCCCCCCCCCCCCCCC(=O)O)C(=O)O)NC(=O)[C@H](CCC(=O)O)NC(=O)[C@H](CC(C)C)NC(=O)[C@H](Cc1ccc(O)cc1)NC(=O)[C@@H](NC(=O)[C@H](CO)NC(=O)[C@H](Cc1ccc(O)cc1)NC(=O)[C@H](CC(=O)O)NC(=O)[C@H](CO)NC(=O)[C@@H](NC(=O)[C@H](Cc1ccccc1)NC(=O)[C@@H](NC(=O)CNC(=O)[C@H](CCC(=O)O)NC(=O)C(C)(C)NC(=O)[C@@H](N)Cc1ccc(O)cc1)[C@@H](C)O)[C@@H](C)O)[C@@H](C)CC)C(=O)N[C@@H](CC(N)=O)C(=O)N[C@@H](Cc1c[nH]c2ccccc12)C(=O)N[C@@H](CC(C)C)C(=O)N[C@@H](CC(C)C)C(=O)N[C@@H](C)C(=O)NCC(=O)NCC(=O)N1CCC[C@H]1C(=O)N[C@@H](CO)C(=O)N[C@@H](CO)C(=O)NCC(=O)N[C@@H](C)C(=O)N1CCC[C@H]1C(=O)N1CCC[C@H]1C(=O)N1CCC[C@H]1C(=O)N[C@@H](CO)C(N)=O) [Compound No. 8] | 2.3 pM | 82.1 pM | 6.7 pM | 191 pM |
